This note sets out measurements from paper PMC3396432.

A value given as a limit tells only on which side of the number the result lay.

This assay concerns the target Cav1(62-178) P132L (UniProt Q03135). The assay can be described thus: AUC.

Turning to “Cav1(62-178) P132L (from UniProt Q03135 62-178) (domain or fragment)”, the Kd – broadly, the concentration at which binding is half-saturated – was less than 15 nM and the stoichiometry N (usually the number of molecules, sites or subunits per partner or assembly) is 2.
